This assay has as its target Human endothelial cells (ECV304). Nature of the assay: inhibition of endothelial cell adhesion to pepsinized collagen type IV by soluble monomer.

Substance “recombinant type IV collagen NCl (α2) monomer (from UniProt P08572)” showed a percent inhibition of cell adhesion of 50%.

Take “recombinant human type IV collagen NCl (α1) monomer (from UniProt P02462)”: the percent inhibition of cell adhesion came to 50%.

Source of the values: patent US20040132662A1.
